Values quoted from earlier work in patent US20120225099A1, “COMPOSITIONS FOR AND METHODS OF […] CYCLASE C” (Thomas Jefferson University, priority 2009, published 2012).
Ends that are not written are not given here.

Target: guanylate cyclase (ST receptors) (Homo sapiens, UniProt P25092)
Settings: relative to native ST; about

Sequence of guanylate cyclase (ST receptors) (P25092 24-1073): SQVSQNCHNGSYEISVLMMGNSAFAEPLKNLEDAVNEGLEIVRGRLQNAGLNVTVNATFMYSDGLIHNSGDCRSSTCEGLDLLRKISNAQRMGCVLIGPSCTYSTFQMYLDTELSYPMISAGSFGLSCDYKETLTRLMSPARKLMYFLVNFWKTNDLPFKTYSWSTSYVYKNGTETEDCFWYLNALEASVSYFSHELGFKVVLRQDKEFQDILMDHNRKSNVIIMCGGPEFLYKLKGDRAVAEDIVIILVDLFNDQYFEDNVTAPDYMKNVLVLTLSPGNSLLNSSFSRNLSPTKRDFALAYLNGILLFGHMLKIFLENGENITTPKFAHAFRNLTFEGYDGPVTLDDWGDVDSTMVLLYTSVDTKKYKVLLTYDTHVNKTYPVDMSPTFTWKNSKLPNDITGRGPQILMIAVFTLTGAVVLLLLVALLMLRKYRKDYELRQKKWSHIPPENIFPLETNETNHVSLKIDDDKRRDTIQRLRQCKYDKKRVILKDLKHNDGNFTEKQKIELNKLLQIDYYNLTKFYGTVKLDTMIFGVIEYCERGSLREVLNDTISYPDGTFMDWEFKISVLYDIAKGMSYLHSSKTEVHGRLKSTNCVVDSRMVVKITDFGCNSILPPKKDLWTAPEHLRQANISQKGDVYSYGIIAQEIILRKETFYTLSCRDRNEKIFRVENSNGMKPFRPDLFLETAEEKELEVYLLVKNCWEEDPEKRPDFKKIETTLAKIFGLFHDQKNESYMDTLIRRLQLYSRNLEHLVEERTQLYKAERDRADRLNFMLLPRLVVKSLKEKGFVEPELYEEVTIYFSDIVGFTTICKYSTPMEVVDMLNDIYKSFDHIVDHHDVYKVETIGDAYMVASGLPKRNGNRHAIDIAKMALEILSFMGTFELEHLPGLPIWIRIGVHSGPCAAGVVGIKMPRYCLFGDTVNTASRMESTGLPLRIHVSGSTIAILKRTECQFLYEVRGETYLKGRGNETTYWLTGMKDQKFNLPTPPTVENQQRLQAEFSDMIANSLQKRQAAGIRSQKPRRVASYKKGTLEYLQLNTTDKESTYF

PNTCEICAYAACTGC (cysteine pairing not given here) [Guanylin, 15 amino acid peptide identified in mammalian intestine; native GCC ligand]
activates guanylate cyclase at a level less than native ST: 10- to 100 fold
